Measured values from publication PMC8024706 (iScience, 2021).

Target: the molecule itself
Assay: high-speed atomic force microscopy

B1: PDI I289A (enzyme)
chain: not shown
stoichiometry N: 2
